Legend:
[1] = target: RNA polymerase sigma70 holoenzyme, beta I905N beta I905N (Escherichia coli) (UniProt P0A7Z4+P0A8V2+P0A8T7+P0A800+P00579); details: +sigma70; SD 0.02
[2] = target: RNA polymerase beta L901Q beta L901Q (Escherichia coli) (UniProt P0A7Z4+P0A8V2+P0A8T7+P0A800); details: -sigma70; SD 0.05
[3] = target: RNA polymerase sigma70 holoenzyme, beta F906A beta F906A (Escherichia coli) (UniProt P0A7Z4+P0A8V2+P0A8T7+P0A800+P00579); details: +sigma70; SD 0.15
[4] = target: RNA polymerase sigma70 holoenzyme, wild-type (Escherichia coli) (UniProt P0A7Z4+P0A8V2+P0A8T7+P0A800+P00579); details: +sigma70; SD 0.1
[5] = target: RNA polymerase sigma70 holoenzyme, beta L902P beta L902P (Escherichia coli) (UniProt P0A7Z4+P0A8V2+P0A8T7+P0A800+P00579); details: +sigma70; SD 0.09
[6] = target: RNA polymerase core, wild-type (alpha2 beta beta' omega) (Escherichia coli) (UniProt P0A7Z4+P0A8V2+P0A8T7+P0A800); details: [3H]UMP incorporation, -sigma70; SD 0.05
[7] = target: RNA polymerase sigma70 holoenzyme, beta L901Q beta L901Q (Escherichia coli) (UniProt P0A7Z4+P0A8V2+P0A8T7+P0A800+P00579); details: +sigma70; SD 0.07
[8] = target: RNA polymerase beta L902P beta L902P (Escherichia coli) (UniProt P0A7Z4+P0A8V2+P0A8T7+P0A800); details: -sigma70; SD 0.05
[9] = target: RNA polymerase sigma70 holoenzyme, beta L901R beta L901R (Escherichia coli) (UniProt P0A7Z4+P0A8V2+P0A8T7+P0A800+P00579); details: +sigma70; SD 0.07
[10] = target: RNA polymerase beta delta(900-909) beta deletion 900-909 (Escherichia coli) (UniProt P0A7Z4+P0A8V2+P0A8T7+P0A800); details: -sigma70; SD 0.02
[11] = target: RNA polymerase beta I905N beta I905N (Escherichia coli) (UniProt P0A7Z4+P0A8V2+P0A8T7+P0A800); details: -sigma70; SD 0.04
[12] = target: RNA polymerase beta L901R beta L901R (Escherichia coli) (UniProt P0A7Z4+P0A8V2+P0A8T7+P0A800); details: -sigma70; SD 0.05
[13] = target: RNA polymerase beta F906A beta F906A (Escherichia coli) (UniProt P0A7Z4+P0A8V2+P0A8T7+P0A800); details: -sigma70; SD 0.14
[14] = target: RNA polymerase sigma70 holoenzyme, beta delta(900-909) beta deletion 900-909 (Escherichia coli) (UniProt P0A7Z4+P0A8V2+P0A8T7+P0A800+P00579); details: +sigma70; SD 0.05
σ^70 lacking region 1 = σ^70 lacking region 1 (UniProt P00579); assay: trypsin protection of the β flap-tip by σ70 lacking region 1; wild-type RNAP without σ: 9.2 ± 0.1
[15] = target: σ^70 lacking region 1 and region 4 (UniProt P00579); assay: trypsin protection of the β flap-tip by σ70 lacking regions 1 and 4; wild-type RNAP without σ: 9.2 ± 0.1
σ^70 lacking region 4 = σ^70 lacking region 4 (UniProt P00579); assay: trypsin protection of the β flap-tip by σ70 lacking region 4; wild-type RNAP without σ: 9.2 ± 0.1
[16] = target: RNA polymerase beta F906A (Escherichia coli, UniProt P0A7Z4;P0A8V2;P0A8T7;P0A800 P0A7Z4:1-329,P0A8V2:1-1342,P0A8T7:1-1407,P0A800:2-91, beta F906A); assay: 4-thioU crosslink retained while 5-iodoU crosslink lost; hairpin-flap interaction not altered; details: tags: N-terminal His6 on beta, beta' intein-CBD removed by DTT, chain copies: 2,1,1,1, label: 32P
[17] = target: RNA polymerase beta K909C (Escherichia coli, UniProt P0A7Z4;P0A8V2;P0A8T7;P0A800 P0A7Z4:1-329,P0A8V2:1-1342,P0A8T7:1-1407,P0A800:2-91, beta K909C); assay: UV crosslinking in paused TEC; crosslink maps between 903 and 909; details: tags: N-terminal His6 on beta; chain copies: 2,1,1,1; label: 32P; hairpin
Description: (§1) First, paused TECs containing either wild-type or βK909C mutant RNAPs and a wild-type pause hairpin loop derivatized with 5-iodoU and [α-³²P]CMP were prepared (FIG. 1A). The 5-iodoU crosslink was mapped by cleaving the crosslinked β subunit either to completion with trypsin or partially with 2-nitro-5-thiobenzoic-acid (NTCB), and by separating the cleavage products on SDS polyacrylamide gels (8-16% gradient; FIG. 6A). Trypsin cleavage was performed prior to disruption of the TEC, which results in cleavage within β only at R903 and K909 (Boruhkov et al., 1991). […] NTCB cleaves at Cys residues, which are present at seven positions in wild-type β and eight in βK909C.

[18] = target: T1, RNA polymerase core, wild-type (alpha2 beta beta' omega) (Escherichia coli, UniProt P0A7Z4;P0A8V2;P0A8T7;P0A800 P0A7Z4:1-329,P0A8V2:1-1342,P0A8T7:1-1407,P0A800:2-91); assay: UV crosslinking (5-iodoU) in paused TEC; mapped to beta 904-908; details: tags: N-terminal His6 on beta; beta' C-terminal intein-CBD removed by DTT; chain copies: 2,1,1,1; label: 32P; hairpin
Description: as §1

[19] = target: T1, RNA polymerase core, wild-type (alpha2 …); assay: 5-iodoU UV crosslinking in paused TEC; details: tags: N-terminal His6 on beta; beta' C-terminal intein-CBD removed by DTT; chain copies: 2,1,1,1; label: 32P; hairpin

poly(dA dT)
binding signal (relative to wild-type core) [1]: 1.3 | binding signal (relative to wild-type core) [2]: 1.2 | binding signal (relative to wild-type core) [3]: 2.1 | binding signal (relative to wild-type core) [4]: 2 | binding signal (relative to wild-type core) [5]: 1.5 | binding signal (relative to wild-type core) [6]: 1 | binding signal (relative to wild-type core) [7]: 1.4 | binding signal (relative to wild-type core) [8]: 1.2 | binding signal (relative to wild-type core) [9]: 1.5 | binding signal (relative to wild-type core) [10]: 0.95 | binding signal (relative to wild-type core) [11]: 1 | binding signal (relative to wild-type core) [12]: 1.2 | binding signal (relative to wild-type core) [13]: 1 | binding signal (relative to wild-type core) [14]: 0.9

wild-type Escherichia coli RNA polymerase (core enzyme, α, β, β′ subunits)
β cleavage rate + σ^70 (σ^70 lacking region 1): 0.0062 s⁻¹ | β cleavage rate + σ^70 [15]: 0.011 s⁻¹ | β cleavage rate + σ^70 (σ^70 lacking region 4): 0.011 s⁻¹

CCUGACUAGUCUUUCAGG (ssRNA, 5-iodoU or 4-thioU in hairpin loop) [his pause RNA hairpin, wild-type]
binding result [16]: binds | binding result [17]: binds | binding result [18]: binds

CCUGCUUCGGCAGGCGAUGUGUGCUG (ssRNA, 5-iodoU in hairpin loop) [his pause RNA, tetraloop hairpin]
binding result [19]: binds

From patent US20080193921, “Methods to identify agents that bind the flap-tip helix of RNA polymerase” (Wisconsin Alumni Research Foundation, published 2008)
